System: K4 kissing-loop RNA reporter
Assay: apparent KD of K4 kissing-loop reporter; higher = weaker reporter binding
Conditions: Eterna round: R107
Method: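 RNA-MaP round R107: designed RNA switches with theophylline, tryptophan, arginine or FMN aptamers are transcribed on-chip within common flanks. They are titrated with a labelled K4 kissing-loop RNA reporter in RNA-MaP buffer (100 mM Tris pH 7.5, 80 mM KCl, 4 mM MgCl2), without ligand or with the indicated ligand. Median apparent KD per design.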

[1] = input ligand: theophylline 20 uM
[2] = input ligand: tryptophan 2.4 mM
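Further: bound reporter read as fluorescence of individual clusters on recovered sequencing chips by microscopy, with normalized cluster intensities fitted with a binding model.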

Row | Sequence | apparent KD of K4 kissing-loop reporter (input ligand: FMN 200 uM) | apparent KD of K4 kissing-loop reporter (input ligand: arginine 13.2 mM) | apparent KD of K4 kissing-loop reporter (input ligand: none) | apparent KD of K4 kissing-loop reporter [1] | apparent KD of K4 kissing-loop reporter [2]
1 | CUGGGUUGACGAAAAGUCAACAAAUGAGAAGGAGCGCACGAAAGUGCAGGUAGGUCGCUCAGUCCAGUGAUGUUGGAUCAUCCAG [#SwitchBubble 10 #K4Late] | 461 nM | 602 nM | 578 nM | 480 nM | 361 nM
2 | UAAGAAUAAGUAGCAGUGAUGUUGCUACUACGAGGACCGGUACGGCCGCCACUCGAGUCCUCGAAACAUCACUGAACGAGGAAUA [(H,1)-(H,2)-(Trp1)-(Trp2)-(T)'-(H)'-(T)''] | 231 nM | 150 nM | 201 nM | 136 nM | 358 nM
3 | AAUAAAAUCACGGCCGCCACUGAAUAAUUACGAAGUAGUGAUGUUACUUCACAUAUCUUAUUUAACAGGACCGGGUGAAUAUUUA [#16 K4 Tryptophan B Exclusion] | 72.3 nM | 66.3 nM | 70.9 nM | 65.1 nM | 81.8 nM
4 | UUUUUGGAGAAUUAUAGUGAUGUUAUGAAGAAGGAUAUCUAAAGAUGGAGAAGGUUUAAUAGUUAAGGGAUGGAGGGUGGGUGGG [ExFMNA.P] | 282 nM | 155 nM | 293 nM | 221 nM | 194 nM
5 | UCUUGAGUAUAUGAUACCAGCAGUGAGAGACAGGAAGUAUAGUGAUGUUAUAUGAGAGAAUGCCCUUGGCAGCGUGUGCGGUGGG [SSTheophylB.S] | 103 nM | 144 nM | 112 nM | 187 nM | 94.7 nM
6 | CCCUCACGAGUGAUGUUCGUAGGGUACAGUCAGGAUAUCAUGCGGUUGAGAAGGGACAGAGAGGGCGGCGGCGGGUUGCUCAUCU [Isanausbe] | 197 nM | 217 nM | 325 nM | 266 nM | 215 nM
7 | UUUGUAUAGGGAAGGAGCGUGAAUGAUAAUGAAUAUAGUGAUGUUAUAUAUAAGAAAGAAUCACAGGUAGGUCGCCCGGAGGAGG [SSArgB.J] | 612 nM | 410 nM | 668 nM | 1350 nM | 428 nM
8 | UCUAGUUCUACGGCCGCCACUAUCGAGCACGGGUAUUAGUGAUGUUGAGGUCGUGUCUCCCUCCCUAGGACCGGGUAGAUCUUAG [theeternabot_sameState_KL_Trp_B_4] | 890 nM | 482 nM | 667 nM | 629 nM | 557 nM
9 | AAAUAGGUGUGCGAUACCAGCCGGAGUGAUGUUCCGUGUUGUACUGGCUGCACCUACGCCGGCCCUUGGCAGCGUGCUCCAUUUA [Enonin] | 177 nM | 140 nM | 169 nM | 263 nM | 148 nM
10 | AAGUGUGUGGCGGCCGCCACUAGAAUCCAGUGAUGUUGGAGAUAUCACGUAAGUGAUAUCCAACAUAGGACCGGGCCAUAUAGAA [Same State - Tryptophan B (Freestyle 12)] | 142 nM | 111 nM | 80.3 nM | 210 nM | 95.5 nM
11 | GGAUAGGAUAGAGGAUAUGGAUUAGGCAAGAAUAACUUGUCUUGUAAAUCCAUGAGGAGUGAUGUUCCAGAAGGCUGUCCUAUCG [MatMod 6 - Jieux - Exclusion - FMN B] | 233 nM | 113 nM | 116 nM | 117 nM | 94.3 nM
12 | UGAUACCAGGCGGCCGCCACUCCCGCAGGUCAAAGACCUGCGAAGCUGGUUCUCCAGUGAUGUUGGAGGACCGGGCCUGGUAUCU [FiskerMod 26 - Jieux - Exclusion - Tryptophan B] | 191 nM | 141 nM | 152 nM | 168 nM | 436 nM
13 | AAACGUUGGUGCGAUACCAGCUUGAUCGGUAAACGAUCUACUGGAGUGAUGUUCCUAAAUAGCCCUUGGCAGCGCACCGACGAAA [MAT - Same State Theophlline B - Mod of Eli - D8] | 181 nM | 155 nM | 169 nM | 128 nM | 166 nM
14 | CGGACGGUAUCGGCCGCCACUCUGAAGACAGUGAUGUUGUCCGUGCAGUAUUUAGGAAAGCCGCGGAGGACCGGGAUGCGUCACU [theeternabot_sameState_KL_Trp_B_48] | 374 nM | 150 nM | 232 nM | 253 nM | 340 nM
15 | AGAUCUGUAACAGAUACCAGAGGACGAUGAUCGGAUAGUGAUGUUAUCUAUCAGUCGUCGCUCCCUUGGCAGCUGUUACAGAUCA [Omei KL Theo B SS B v2] | 839 nM | 450 nM | 776 nM | 552 nM | 662 nM
16 | UGCAUGCUUGGAGUGAUGUUCCAAGAUGAUACCAGUGCUUUUUUGCACCCUUGGCAGCGUCUGAUUGCAUGCACGUCGAAAGACG | 531 nM | 471 nM | 529 nM | 490 nM | 517 nM
17 | GCUAGUUUGGAAGGAUAUUCGUGCGAUCAAGUCAAACUUUACUGAGGGCGUUUUGGAGUGAUGUUCGAAGAAGGUCCCUUACUUA [theeternabot_exclusion_KL_FMN_B_28] | 1400 nM | 816 nM | 999 nM | 664 nM | 758 nM
18 | CCAUCGCUAUUCGAUACCAGUCUACGUAGGAAACUACGUCUGCAAAGGAGUGAUGUUCCAGACCCUUGGCAGCGAAUAGUGAUGG [Theophylline B K4 5] | 969 nM | 689 nM | 792 nM | 589 nM | 900 nM
19 | GGAGAGAACUGAAGGAGCGGCAAGAGAGAAGGAAAUAUAGUGAUGUUAUAUAAGAGAGAGAGCCAGGUAGGUCGCAGAGGGAGGA [ExArgB.A] | 201 nM | 153 nM | 147 nM | 164 nM | 149 nM
20 | AGGCACGAGCAAGGAUAUCGAGUAGAGUGAUGUUCUGCCUGGGUUGGCGCGCAAGGGCCUUCCCAGCGAGAAGGUGCUCGUGCCU [#2 Same State - FMN A Attempt #11 (HarryS)] | 221 nM | 840 nM | 916 nM | 682 nM | 634 nM
21 | GCCGUACGCAUGGAUACCAGUCUUAGAGUGAUGUUCUAAUCGAUUGCGCCUGGAUCAAUGGACCCUUGGCAGCCAUGCGUACGGC | 129 nM | 97.3 nM | 120 nM | 125 nM | 112 nM
